From the RNAGym collection of RNA variant scans (doi:10.7554/elife.90254)

B1: OR4K15 (parent)
chain: GUUAACGGUCAUAGGCCAUGGAAACUAGGAGCACCAUUUCGCUGCCAGUGAAGAAAUGAACAAAGAAAAUCUGGGCCAGGCAGGCAUCAAAAGAAAUAGUCUUGCGCUCAACCAGAAAGUCUGUAAUCAUUUUAAGGGUA

Variants of: B1
Test: self-cleavage, relative activity (ratio to wild type); higher = more cleavage; in vitro, sequencing; the parent is a self-cleaving ribozyme

Row | Variant | self-cleavage
1 | C61U G136A | 2.1
2 | A60G U100C | 1.35
3 | A60C A111G | 0
4 | A63U U72C | 0.41
5 | A60U U103C | 0.16
6 | A63G A140U | 1.52
7 | A63G A140G | 2.02
8 | A62C U87C | 1.51
9 | A59U U132A | 1.61
10 | A63C A140G | 1.96
11 | A62U A118G | 1.9
12 | A60G G79C | 0.07
13 | A63G A86U | 2.04
14 | A60G G84U | 0.43
15 | A60C U100A | 0.68
16 | A60U A95G | 1.6
17 | A59U A117C | 0.63
18 | A60G U87C | 0.93
19 | A59U A92G | 0.79
20 | A62C A63G | 1.55
21 | A60G C81U | 0.21
22 | A62C A135G | 1.24
23 | A59U A89U | 2.6
24 | A62U U132C | 1.48

Row | Variant | self-cleavage
25 | C61U A116G | 0.39
26 | A62G A134G | 1.72
27 | A60G G115A | 0.04
28 | A62G G115U | 0.07
29 | A60G A114U | 0.06
30 | A62G A91U | 1.61
31 | A60U A117G | 1.84
32 | A63G U124A | 0.72
33 | A60U A64G | 0.65
34 | A60G A66G | 1.15
35 | A60U A62G | 1.72
36 | A63G A66U | 1.49
37 | A60C A117U | 0.56
38 | A60G A86U | 1.44
39 | A60C U72C | 0.16
40 | A60G C101A | 0.23
41 | A62G A110G | 0.16
42 | A62G A110U | 2.32
43 | A62G U127A | 1.79
44 | A63U A96G | 1.74
45 | A60C A66G | 0.72
46 | A62U G136A | 1.59
47 | C61U A64G | 1.63
48 | A60G U102A | 0.99

Row | Variant | self-cleavage
49 | A63G A135G | 1.35
50 | A63G A135U | 0.04
51 | A63G C107G | 0.01
52 | A63G C107U | 0.01
53 | A60G A134G | 0.69
54 | A63G G106U | 0.02
55 | A62G | 1.23
56 | A62U | 1.53
57 | A62C | 1.64
58 | A63G A94U | 0.98
59 | C61U A94G | 1.63
60 | A60U G79U | 0.08
61 | A63G U132C | 1.67
62 | A62C A140U | 1.7
63 | A63G A91U | 2.36
64 | A60G C71U | 0.1
65 | A60G U127G | 1.52
66 | A60G U127A | 1.87
67 | A60G U127C | 0.93
68 | A60U A91G | 1.34
69 | A62G A116U | 0.35
70 | A62C A116U | 0.63
71 | A62C A116G | 0.78
72 | A62G U108C | 0.02

Row | Variant | self-cleavage
73 | A63G A90G | 1.6
74 | A60U U108C | 0.01
75 | A62G A69G | 0.68
76 | A62G A69U | 1.87
77 | A60G U72C | 0.17
78 | A60G U72A | 0.17
79 | A62C A134G | 1.15
80 | A60U A94U | 1.82
81 | A63U A98G | 0.8
82 | C61G A62U | 1.87
83 | A62C U97A | 1.86
84 | A63G U70A | 1.47
85 | A63G U70C | 1.08
86 | A63G U70G | 1.56
87 | A62U G84C | 0.25
88 | A62C A92G | 1.58
89 | A59U U100G | 2.13
90 | A59U U100A | 0.74
91 | A59U U100C | 2.73
92 | A62G G74A | 0.24
93 | A60G A91U | 1.31
94 | A60G A91G | 0.99
95 | A59U U124C | 0.69
96 | A59U U124A | 0.51

Row | Variant | self-cleavage
97 | A60G A62G | 1
98 | A60G A62U | 1.51
99 | C61U C101U | 0.54
100 | A62G G83A | 0.99
101 | A60C U108A | 0.04
102 | A63G C109A | 0.55
103 | A63G C109U | 0.69
104 | A62G A63U | 1.61
105 | A62G G106A | 0.01
106 | A62U U102A | 0.57
107 | A62G U122A | 1.07
108 | A60G A118G | 1.07
109 | A60G A118C | 0.74
110 | A60G A118U | 0.79
111 | A60C U122C | 1.62
112 | A62G U132A | 1.9
113 | A59U U103G | 0.04
114 | A60C U120C | 0.98
115 | A60G A78G | 0.23
116 | A63U A95G | 1.78
117 | A59U A95G | 1.85
118 | A62G A92U | 1.01
119 | A59U A96U | 0.97
120 | A63G A89G | 1.89

Row | Variant | self-cleavage
121 | A63G A89U | 1.13
122 | A60G A63C | 1.48
123 | A60G A63G | 1.35
124 | A60G A116U | 0.31
125 | A60G A116G | 0.5
126 | A63G U139A | 1.74
127 | A62U G99A | 0.62
128 | A63U A64G | 0.94
129 | A60G A67U | 2.01
130 | A60G A67C | 0.77
131 | A60G U139A | 1.12
132 | A60G U139C | 0.47
133 | A62C A78U | 0.46
134 | A62G A126G | 2.05
135 | A62G A126C | 0.62
136 | A62G A126U | 1.6
137 | A63G | 1.41
138 | A63U | 0.82
139 | A63C | 1.81
140 | A60U U130C | 1.22
141 | C61U U72A | 0.19
142 | A63U A90U | 1.93
143 | A59U A110G | 0.08
144 | C61U A98G | 0.45

Row | Variant | self-cleavage
145 | A60G A68U | 1.38
146 | A60G A68G | 1.31
147 | A63G A117G | 1.69
148 | A63C U131C | 1.99
149 | A62G A86U | 2.08
150 | A59U A91G | 0.79
151 | C61U G115A | 0.08
152 | A60G G104A | 0.02
153 | A60U G83A | 1.65
154 | A60G A126G | 0.27
155 | A63G A92U | 1.35
156 | A62G A66U | 1.78
157 | A62G A66G | 1.48
158 | A62G G136U | 1.1
159 | A62G G136A | 2.2
160 | A63G A96G | 1.4
161 | A63G A125C | 1.23
162 | C61U A82G | 0.28
163 | A60G A92G | 0.87
164 | A60G A111U | 0.11
165 | A60G A111G | 0.03
166 | A63G U87G | 1.35
167 | A62C U130C | 0.71
